The target in this assay is human IGF-1 receptor (human) (UniProt P08069). Kind of assay: competitive radioligand SPA, [125I]IGF-1, hIGF-1R membranes.

As usually defined, the Ki is the equilibrium dissociation constant of an inhibitor or competing ligand from its target. As to “insulin lispro (ligand; other documents disagree on this pair)”, the Ki was more than 75 nM.

(Values after patent publication US20090312236A1.)
